For assay [1], the target named is T1, Hdm2 140-350 (polyhistidine-tagged, bacterial) (human, UniProt Q00987 140-350).
T1 construct: The sense primer places an ATG before residue 141, so position 140 of the construct may be Met; also called Hdm2 140-350 polypeptide; not shown: N-terminal polyhistidine tag of pET28a
The assay can be described thus: immunoprecipitation and blot with bacterial Hdm2 140-350.

In assay [2] the target is endogenous wild-type p53 of mouse fibroblasts (NIH-3T3 cells, MEFs) (mouse, UniProt P02340 1-390). The assay can be described thus: sequential immunoprecipitation from NIH-3T3 cells; EMSA. (A gel shift assay detects complexes by their altered migration in electrophoresis.)
Assay [3] concerns the target T2, CDK4 (mouse, endogenous) (mouse, UniProt P30285 2-303).
T2 sequence (looked up): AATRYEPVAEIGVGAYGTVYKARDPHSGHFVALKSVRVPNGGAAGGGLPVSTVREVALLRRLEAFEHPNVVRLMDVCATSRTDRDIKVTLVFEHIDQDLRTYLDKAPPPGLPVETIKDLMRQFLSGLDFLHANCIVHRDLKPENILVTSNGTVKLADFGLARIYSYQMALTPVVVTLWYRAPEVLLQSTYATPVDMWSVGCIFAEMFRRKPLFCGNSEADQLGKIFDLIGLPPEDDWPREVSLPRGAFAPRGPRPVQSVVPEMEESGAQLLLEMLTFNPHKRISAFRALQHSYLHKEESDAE
In words: immunoprecipitates from cell lysates blotted with anti-ARF-p19; Sf9 baculovirus reconstruction also gave no convincing evidence.

Assay [4] concerns the target T3, CDC2 (mouse, endogenous) (mouse, UniProt P11440 1-297).
T3 construct: also called CDK1
The assay is described as above.

The target in assay [5] is CDK6 (mouse, endogenous) (mouse, UniProt Q64261 1-326). The assay is described as above.
For assay [6], the target named is cyclin D1 (mouse, endogenous) (mouse, UniProt P25322 1-295). The assay is described as above.
The target of assay [7] is cyclin D2 (mouse, endogenous) (mouse, UniProt P30280 1-289). Described as above.
For assay [8], the target named is cyclin A (mouse, endogenous) (mouse, UniProt P51943 1-422, limits assumed). The assay is described as above.
Assay [9] concerns the target T1, Hdm2 140-350 (polyhistidine-tagged, …). In words: FPLC affinity chromatography on peptide coupled to Sepharose.
The target of assay [10] is T4, Hdm2 210-304 (polyhistidine-tagged, bacterial) (human, UniProt Q00987 210-304).
T4 construct: The sense primer places an ATG before residue 211; not shown: N-terminal polyhistidine tag of pET28a
The description is as above.

Assay [11] addresses T5, Hdm2 (Human Double Minute 2, full-length, untagged) (human, UniProt Q00987 1-491).
T5 construct: GenBank M92424 printed; also called wild type Hdm2
In words: binding assay not described further.

For assay [12], the target named is T2, CDK4 (mouse, endogenous). The assay can be described thus: p16 immunoprecipitates blotted with antiserum to CDK4.
In assay [13] the target is T4, Hdm2 210-304 (polyhistidine-tagged, …). In words: FPLC affinity chromatography, NaCl gradient then acid.
Assay [14] concerns the target T1, Hdm2 140-350 (polyhistidine-tagged, …). The assay can be described thus: FPLC affinity chromatography, ARF polypeptide coupled to Sepharose, NaCl gradient then acid.
The target in assay [15] is T6, Mdm2 (Murine Double Minute 2, full-length) (mouse, UniProt P23804 1-489).
T6 construct: Full-length protein made in Sf9 cells from a baculovirus, or endogenous in NIH-3T3 cells; GenBank X58876 printed; also called wild type Mdm2; full-length Mdm2
In words: His-tagged syn-ARF N37 mixed with Mdm2 from Sf9 cells, immunoprecipitation with 2A10 or anti-polyhistidine and blot.

T1 sequence (Q00987 140-350): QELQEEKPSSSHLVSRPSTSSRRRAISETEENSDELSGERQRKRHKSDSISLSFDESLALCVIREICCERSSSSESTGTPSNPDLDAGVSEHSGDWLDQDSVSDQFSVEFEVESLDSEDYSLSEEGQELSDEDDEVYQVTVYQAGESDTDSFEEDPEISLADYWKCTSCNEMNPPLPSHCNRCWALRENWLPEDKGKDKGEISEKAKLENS
T5 sequence (Q00987 whole entry): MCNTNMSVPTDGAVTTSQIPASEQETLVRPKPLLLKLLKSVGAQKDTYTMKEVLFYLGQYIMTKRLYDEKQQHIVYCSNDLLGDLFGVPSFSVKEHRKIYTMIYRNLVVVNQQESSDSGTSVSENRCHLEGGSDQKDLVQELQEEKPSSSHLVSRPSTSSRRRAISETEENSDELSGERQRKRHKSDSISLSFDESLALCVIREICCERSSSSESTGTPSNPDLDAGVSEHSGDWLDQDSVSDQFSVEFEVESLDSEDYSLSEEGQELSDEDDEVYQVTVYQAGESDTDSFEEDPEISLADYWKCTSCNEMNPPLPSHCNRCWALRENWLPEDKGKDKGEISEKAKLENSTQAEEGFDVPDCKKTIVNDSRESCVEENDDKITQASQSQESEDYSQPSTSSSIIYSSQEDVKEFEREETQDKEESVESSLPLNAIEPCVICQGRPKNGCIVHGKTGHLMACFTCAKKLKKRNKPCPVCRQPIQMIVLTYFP
T4 sequence (Q00987 210-304): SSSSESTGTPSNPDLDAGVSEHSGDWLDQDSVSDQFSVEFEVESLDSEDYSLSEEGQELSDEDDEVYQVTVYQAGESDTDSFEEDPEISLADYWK
T3 sequence (P11440 whole entry): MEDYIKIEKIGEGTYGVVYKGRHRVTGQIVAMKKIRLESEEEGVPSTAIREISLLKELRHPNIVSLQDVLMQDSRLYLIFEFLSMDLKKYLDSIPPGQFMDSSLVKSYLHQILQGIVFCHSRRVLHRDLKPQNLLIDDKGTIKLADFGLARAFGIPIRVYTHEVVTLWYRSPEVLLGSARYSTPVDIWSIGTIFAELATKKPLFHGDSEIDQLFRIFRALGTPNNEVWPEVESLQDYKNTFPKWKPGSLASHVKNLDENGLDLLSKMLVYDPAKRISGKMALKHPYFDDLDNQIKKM
Sequence of cyclin D2 (mouse, endogenous) (P30280 whole entry): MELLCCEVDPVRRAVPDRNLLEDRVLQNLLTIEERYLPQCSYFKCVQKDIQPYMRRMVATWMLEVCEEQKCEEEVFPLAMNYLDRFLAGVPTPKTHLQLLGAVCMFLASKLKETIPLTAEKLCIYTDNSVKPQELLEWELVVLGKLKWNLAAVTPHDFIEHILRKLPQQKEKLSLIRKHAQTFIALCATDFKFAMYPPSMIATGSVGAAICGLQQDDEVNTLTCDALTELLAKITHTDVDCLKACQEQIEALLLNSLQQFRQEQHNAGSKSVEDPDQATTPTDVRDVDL
T6 sequence (P23804 other isoform, or with tags, fused parts or gaps limits assumed): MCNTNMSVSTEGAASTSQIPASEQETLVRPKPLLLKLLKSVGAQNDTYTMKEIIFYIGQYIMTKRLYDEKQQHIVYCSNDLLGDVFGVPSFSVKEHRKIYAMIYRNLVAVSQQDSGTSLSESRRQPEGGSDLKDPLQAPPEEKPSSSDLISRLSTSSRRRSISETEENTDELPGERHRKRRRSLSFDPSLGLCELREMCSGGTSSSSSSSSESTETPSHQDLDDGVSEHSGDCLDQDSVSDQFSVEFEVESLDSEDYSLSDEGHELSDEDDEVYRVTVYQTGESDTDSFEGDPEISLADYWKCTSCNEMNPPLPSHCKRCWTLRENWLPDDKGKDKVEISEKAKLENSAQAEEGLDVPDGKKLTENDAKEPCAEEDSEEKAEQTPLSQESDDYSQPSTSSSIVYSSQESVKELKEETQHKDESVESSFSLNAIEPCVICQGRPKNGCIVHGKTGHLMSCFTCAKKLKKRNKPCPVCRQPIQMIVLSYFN
Sequence of endogenous wild-type p53 of mouse fibroblasts (NIH-3T3 cells, MEFs) (P02340 whole entry): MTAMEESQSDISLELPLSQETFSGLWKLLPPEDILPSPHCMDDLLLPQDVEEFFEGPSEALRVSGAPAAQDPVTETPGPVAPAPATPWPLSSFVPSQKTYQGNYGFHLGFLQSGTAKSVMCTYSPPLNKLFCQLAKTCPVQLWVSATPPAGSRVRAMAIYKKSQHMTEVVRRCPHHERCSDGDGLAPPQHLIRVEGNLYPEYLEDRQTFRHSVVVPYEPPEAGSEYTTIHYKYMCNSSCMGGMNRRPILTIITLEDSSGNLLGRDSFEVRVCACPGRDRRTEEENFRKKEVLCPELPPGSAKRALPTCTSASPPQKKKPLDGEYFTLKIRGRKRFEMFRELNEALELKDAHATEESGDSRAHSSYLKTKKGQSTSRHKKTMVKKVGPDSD
Sequence of cyclin D1 (mouse, endogenous) (P25322 whole entry): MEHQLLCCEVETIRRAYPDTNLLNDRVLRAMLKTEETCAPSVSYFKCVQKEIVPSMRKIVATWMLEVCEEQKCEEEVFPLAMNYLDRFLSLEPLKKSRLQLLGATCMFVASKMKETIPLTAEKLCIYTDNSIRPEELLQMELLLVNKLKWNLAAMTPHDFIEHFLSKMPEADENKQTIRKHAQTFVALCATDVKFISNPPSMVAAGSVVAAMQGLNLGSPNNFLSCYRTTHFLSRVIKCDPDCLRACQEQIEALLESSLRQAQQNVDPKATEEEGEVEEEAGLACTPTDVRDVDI
Sequence of CDK6 (mouse, endogenous) (Q64261 whole entry): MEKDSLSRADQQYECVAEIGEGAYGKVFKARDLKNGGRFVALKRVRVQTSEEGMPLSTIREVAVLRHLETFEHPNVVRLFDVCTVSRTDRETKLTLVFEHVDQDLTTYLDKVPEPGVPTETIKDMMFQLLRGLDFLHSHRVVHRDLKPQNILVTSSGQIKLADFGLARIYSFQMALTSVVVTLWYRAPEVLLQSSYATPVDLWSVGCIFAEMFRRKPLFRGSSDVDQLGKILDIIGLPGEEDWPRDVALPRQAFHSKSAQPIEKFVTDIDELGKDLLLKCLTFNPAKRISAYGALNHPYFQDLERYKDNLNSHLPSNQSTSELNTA
Sequence of cyclin A (mouse, endogenous) (P51943 whole entry): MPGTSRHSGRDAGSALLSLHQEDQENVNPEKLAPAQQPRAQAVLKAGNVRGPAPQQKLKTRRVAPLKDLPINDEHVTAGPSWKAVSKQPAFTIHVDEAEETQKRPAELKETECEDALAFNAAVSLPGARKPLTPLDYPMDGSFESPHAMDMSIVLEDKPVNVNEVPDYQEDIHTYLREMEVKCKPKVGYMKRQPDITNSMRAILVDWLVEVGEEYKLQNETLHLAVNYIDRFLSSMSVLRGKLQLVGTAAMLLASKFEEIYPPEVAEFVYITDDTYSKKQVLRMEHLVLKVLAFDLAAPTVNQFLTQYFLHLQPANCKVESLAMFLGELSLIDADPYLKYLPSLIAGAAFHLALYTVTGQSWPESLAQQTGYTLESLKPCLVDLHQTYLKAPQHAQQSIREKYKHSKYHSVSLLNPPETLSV

B1: mouse p19^ARF Δ1-14 (HA-tagged deletion mutant) (other)
chain: GRPLQERVFLVKFVRSRRPRTASCALAFVNMLLRLERILRRGPHRNPGPGDDDGQRSRSSSSAQLRCRFELRGPHYLLPPGARRSAGRLPGHAGGAARVRGSAGCARCLGSPAARLGPRAGTSRHRAIFAFRWVLFVFRWVVFVYRWERRPDRRA
notes: also called p19^ARF mutant lacking amino acid residues 1-14; not shown: N-terminal HA tag of the HA-tagged ARF cDNA template
Consider B1, for which, in assay [1], the binding result is recorded as “binds”.

B2: mouse p19^ARF Δ26-37 (HA-tagged deletion mutant) (other)
chain: MGRRFLVTVRIQRAGRPLQERVFLVCALAFVNMLLRLERILRRGPHRNPGPGDDDGQRSRSSSSAQLRCRFELRGPHYLLPPGARRSAGRLPGHAGGAARVRGSAGCARCLGSPAARLGPRAGTSRHRAIFAFRWVLFVFRWVVFVYRWERRPDRRA
notes: also called HA-ARF Δ26-37; not shown: N-terminal HA tag
On to B2, for which the binding result in [1] is given as “binds”.

B3: ARF-p19 (mouse, full-length 169 amino acid protein) (other)
chain: MGRRFLVTVRIQRAGRPLQERVFLVKFVRSRRPRTASCALAFVNMLLRLERILRRGPHRNPGPGDDDGQRSRSSSSAQLRCRFELRGPHYLLPPGARRSAGRLPGHAGGAARVRGSAGCARCLGSPAARLGPRAGTSRHRAIFAFRWVLFVFRWVVFVYRWERRPDRRA
notes: also called p19^ARF; p19^ARF protein
Regarding B3, the binding result in assay [2] was “binds”; in [3] it was “no binding”; in assay [4], “no binding”; in [5], “no binding”; in [6] it was “no binding”; in [7], “no binding”. Also, the binding result in assay [8] is on record as “no binding”.

B4: mouse ARF synthetic peptide 15-25 (peptide)
peptide: GRPLQERVFLV
notes: Coupled to Sepharose; also called ARF 15-25
As for B4, the binding result in [9] and in assay [10] was “no binding” in each case.

B5: ARF N62 (mouse p19^ARF N-terminal 62 amino acids, HA-tagged) (other, not shown: small tags and cut ends)
chain: MGRRFLVTVRIQRAGRPLQERVFLVKFVRSRRPRTASCALAFVNMLLRLERILRRGPHRNPG
notes: Produced in Sf9 cells; also called HA-tagged N62; ARF N62 mutant
Regarding B5, in assay [11], the binding result is on record as “binds”.

B6: mouse p19^ARF Δ15-25 (HA-tagged deletion mutant) (other)
chain: MGRRFLVTVRIQRAKFVRSRRPRTASCALAFVNMLLRLERILRRGPHRNPGPGDDDGQRSRSSSSAQLRCRFELRGPHYLLPPGARRSAGRLPGHAGGAARVRGSAGCARCLGSPAARLGPRAGTSRHRAIFAFRWVLFVFRWVVFVYRWERRPDRRA
notes: not shown: N-terminal HA tag of the HA-tagged ARF cDNA template
Take B6: the binding result in assay [1] is given as “binds”.

B7: mouse p19^ARF Δ1-14/Δ26-37 (HA-tagged double-deletion mutant) (other)
chain: GRPLQERVFLVCALAFVNMLLRLERILRRGPHRNPGPGDDDGQRSRSSSSAQLRCRFELRGPHYLLPPGARRSAGRLPGHAGGAARVRGSAGCARCLGSPAARLGPRAGTSRHRAIFAFRWVLFVFRWVVFVYRWERRPDRRA
notes: also called ARF Δ1-14/26-37; not shown: N-terminal HA tag
Take B7: the binding result in assay [1] was “no binding”.

B8: InK4a-p16 (mouse) (other, UniProt P51480 1-168, looked up)
chain: MESAADRLARAAAQGRVHDVRALLEAGVSPNAPNSFGRTPIQVMMMGNVHVAALLLNYGADSNCEDPTTFSRPVHDAAREGFLDTLVVLHGSGARLDVRDAWGRLPLDLAQERGHQDIVRYLRSAGCSLCSAGWSLCTAGNVAQTDGHSFSSSTPRALELRGQSQEQS
notes: not used; also called p16^INK4a
As for B8, the binding result in [12] was “binds”.

B9: syn-ARF N37 (polyhistidine-tagged mouse ARF residues 1-37, made in bacteria) (peptide)
chain: MGRRFLVTVRIQRAGRPLQERVFLVKFVRSRRPRTAS
notes: also called Synthetic ARF N37; recombinant syn-ARF N37; not shown: N-terminal polyhistidine tag of pET28a
As to B9, the binding result in assay [13], in [14] and in assay [15] was “binds” each time.

B10: syn-ARF N64 (polyhistidine-tagged mouse ARF residues 1-64, made in bacteria) (other)
chain: MGRRFLVTVRIQRAGRPLQERVFLVKFVRSRRPRTASCALAFVNMLLRLERILRRGPHRNPGPG
notes: also called minigene-encoded N64 polypeptide; not shown: N-terminal polyhistidine tag of pET28a
In the case of B10, in assay [11], the binding result is “binds”.
